Results from IntAct's records for PubMed 24291789.

B1: Cohesin subunit psc3 (Schizosaccharomyces pombe (strain ATCC 38366 / 972)), O13816 (parent)
chain: MSESVTTGSDDDGGDRESSPVMLSQSFDPMSSSSNSSSEENSDDDYEKTISSKKRHPRPNSKGVNVKRSRRNAIVEEDPQEEIFNNLFAFLLDQKVDTMDIAVSWFADYAKDNQSALANLINFILKCCGCNRAINVFDVQDQDSASATLSQIQLSVERTSTRDYPLNSKNLKFRNFRKRLTGLLSNFVSQLSIRNYLYNSTVFEDIMSWVVAMSSSTMRPIRHTATVFCLNIMTFLCEKSKELLNEHAIATKQLEKEEKRSRVNRNRINELNNSLGEIVKQQDTLTTYLNDYFDSVFVHRYRDVEPKIRVDCLQELGVWINTVPSIFFSGSYLRYLGWMLSDINTTVRLTVVKVLRKFFETDSFIGGLRHFSSRFKERILEMSCVDADIGVRVASIRLCNAMRTCGFLENSEILKVLKLILDINPRVQREAVLFLCKVVDESVNEKIDLWGEEDYILKAFSQTSLTTFSVHWIKFSQMCKLLEEVRLSYQSSFDYDTLLRIFQKNGNFITPITQALLNACEIDSIYQSWEDISNFVLFDNYTSTLKDPIDSILSFCKLNDFQESILLQLLSASIQTVCNNNFITPKTVHNKQAAETTNDQNKDKDLLYLNLLPYINSITERNSASPTLLHDSLRLLFSMDLTEMTDPQLSRHFELLINNLKKFFLTNNDLQIIQGCTILFLRLDSIPALKEDLKLLVTDICDQTVTEFLKNFGSFNIQDAVITKDEFVIFEACLTRIEGCTSLKDFSDYPEFDIIYERLVSLLSRVPNSYEDTLKFSAINTLQSLLFWFFLRKDNPADEEKKKDDETKVFNCLINIMNNDSSKILQLQAARTFLETVIMKEGVKASHYNDDNRVSEEHNFLKPQFLDALLKILEGWLYTYAKVGQFPFKRLTQASSPHTQISLDKNPLNRRLLEHVCCDLTSKLLIVVSLSNTITPEFSQQFCELRGHYGPKLSAIVDEFLN

Variants of: B1
Conditions: with mis4_schpo mis4, Q09725
Chain of mis4_schpo mis4, Q09725 (Q09725 whole entry): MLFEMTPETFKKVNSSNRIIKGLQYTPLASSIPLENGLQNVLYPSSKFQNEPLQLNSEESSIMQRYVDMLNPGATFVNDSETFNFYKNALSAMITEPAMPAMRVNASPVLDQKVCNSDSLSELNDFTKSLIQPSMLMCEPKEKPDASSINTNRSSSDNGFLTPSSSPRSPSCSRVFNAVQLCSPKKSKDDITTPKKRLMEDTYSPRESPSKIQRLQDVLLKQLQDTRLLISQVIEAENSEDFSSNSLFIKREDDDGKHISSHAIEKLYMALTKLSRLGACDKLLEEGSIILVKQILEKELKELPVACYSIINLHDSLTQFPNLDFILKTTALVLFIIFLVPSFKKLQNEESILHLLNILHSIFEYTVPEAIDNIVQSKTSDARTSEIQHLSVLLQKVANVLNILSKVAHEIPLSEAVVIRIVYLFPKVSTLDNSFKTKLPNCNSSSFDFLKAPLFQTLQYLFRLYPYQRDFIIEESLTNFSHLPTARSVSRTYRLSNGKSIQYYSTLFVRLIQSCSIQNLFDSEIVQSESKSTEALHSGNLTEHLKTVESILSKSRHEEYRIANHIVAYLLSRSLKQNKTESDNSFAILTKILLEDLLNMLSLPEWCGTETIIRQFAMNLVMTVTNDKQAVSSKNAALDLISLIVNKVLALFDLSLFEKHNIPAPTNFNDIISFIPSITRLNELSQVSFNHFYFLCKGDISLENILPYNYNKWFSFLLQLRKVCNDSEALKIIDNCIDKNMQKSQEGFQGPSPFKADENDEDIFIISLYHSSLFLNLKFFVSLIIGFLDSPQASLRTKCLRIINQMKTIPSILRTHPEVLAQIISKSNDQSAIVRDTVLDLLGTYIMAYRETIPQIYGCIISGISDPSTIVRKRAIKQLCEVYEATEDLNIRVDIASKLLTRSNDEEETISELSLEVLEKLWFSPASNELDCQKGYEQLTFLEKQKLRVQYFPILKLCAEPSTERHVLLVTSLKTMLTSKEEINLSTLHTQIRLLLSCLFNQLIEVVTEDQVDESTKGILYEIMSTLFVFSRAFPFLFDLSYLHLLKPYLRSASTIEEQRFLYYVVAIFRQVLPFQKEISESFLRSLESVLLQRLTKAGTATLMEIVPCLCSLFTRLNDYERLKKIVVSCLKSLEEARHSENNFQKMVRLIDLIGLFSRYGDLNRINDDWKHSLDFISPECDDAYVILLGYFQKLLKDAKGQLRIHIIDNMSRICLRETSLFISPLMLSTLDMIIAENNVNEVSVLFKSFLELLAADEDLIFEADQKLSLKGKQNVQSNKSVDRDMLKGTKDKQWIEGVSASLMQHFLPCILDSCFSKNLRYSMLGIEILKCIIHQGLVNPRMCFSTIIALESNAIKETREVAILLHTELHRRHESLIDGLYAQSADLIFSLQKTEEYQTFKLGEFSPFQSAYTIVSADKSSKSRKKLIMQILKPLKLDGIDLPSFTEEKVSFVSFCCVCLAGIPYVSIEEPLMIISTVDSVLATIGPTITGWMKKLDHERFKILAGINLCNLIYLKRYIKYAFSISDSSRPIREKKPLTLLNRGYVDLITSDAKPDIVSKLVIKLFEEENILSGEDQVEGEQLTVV
R300G was tested, and the “effect of a mutation on the interaction” value was “decreasing interaction strength”.
With P306L the “effect of a mutation on the interaction” value was “decreasing interaction strength”.
